# T1: GFP-SOX7 (UniProt Q9BT81 1-388)
# T1 sequence: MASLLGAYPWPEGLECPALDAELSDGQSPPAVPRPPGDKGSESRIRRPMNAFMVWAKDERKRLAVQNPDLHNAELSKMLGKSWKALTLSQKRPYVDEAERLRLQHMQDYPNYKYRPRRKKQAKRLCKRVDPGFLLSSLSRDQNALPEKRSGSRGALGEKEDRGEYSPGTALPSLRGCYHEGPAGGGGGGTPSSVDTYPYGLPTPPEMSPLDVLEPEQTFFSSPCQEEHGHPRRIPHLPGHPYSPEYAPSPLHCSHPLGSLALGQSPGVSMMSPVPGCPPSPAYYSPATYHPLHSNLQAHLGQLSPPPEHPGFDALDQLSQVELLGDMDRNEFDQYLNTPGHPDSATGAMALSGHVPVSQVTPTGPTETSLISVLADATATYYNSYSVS
# Target: T1, GFP-SOX7
# Assay: single-molecule two-colour coincidence spectroscopy
binder,measurement,value
HEY1-Cherry (natural protein) MKRAHPEYSSSDSELDETIEVEKESADENGNLSSALGSMSPTTSSQILARKRRRGIIEKRRRDRINNSLSELRRLVPSAFEKQGSAKLEKAEILQMTVDHLKMLHTAGGKGYFDAHALAMDYRSLGFRECLAEVARYLSIIEGLDASDPLRVRLVSHLNNYASQREAASGAHAGLGHIPWGTVFGHHPHIAHPLLLPQNGHGNAGTTASPTEPHHQGRLGSAHPEAPALRAPPSGSLGPVLPVVTSASKLSPPLLSSVASLSAFPFSFGSFHLLSPNALSPSAPTQAANLGKPYRPWGTEIGAF,coincidence ratio,0.66

# From article PMC9975944 (The EMBO Journal, 2023)
